Molecular target: T1, DLL4 ECD His tag (UniProt Q9NR61 27-529, limits assumed)
T1 construct: extracellular domain; also called DLL ECD His tag
Experiment: SPR (Biacore), DVD-Ig captured, DLL4 as analyte

| Kd [nM] | koff [s⁻¹] | kon [M⁻¹ s⁻¹] | Binder |
| --- | --- | --- | --- |
| 2.83 | 0.000472 | 167000 | DVD519 (bispecific antibody, human IgG1, kappa, lambda, HC linker long, LC linker long; also called DVD-Ig DVD519) heavy: not shown light: QAVVTQESALTTSPGETVTLTCRSSTGAVTTSNYANWVQEKPDHLFTGLIGGTNNRAPGVPARFSGSLIGDKAALTITGAQTEDEAIYFCALWYSNHWVFGGGTKLTVLGQPKAAPSVTLFPPDIQMTQSPSSLSASVGDRVTITCRASQDVSTAVAWYQQKPGKAPKLLIYSASFLYSGVPSRFSGSGSGTDFTLTISSLQPEDFATYYCQQSYTTPPTFGQGTKVEIKRTVAAPSVFIFPPSDEQLKSGTASVVCLLNNFYPREAKVQWKVDNALQSGNSQESVTEQDSKDSTYSLSSTLTLSKADYEKHKVYACEVTHQGLSSPVTKSFNRGEC |
| 1.07 | 8.35e-05 | 78200 | DVD492 (bispecific antibody, human IgG1, kappa, Outer AB071 (VEGF), inner AB072 (DLL4); HC linker short, LC linker short; also called DVD-Ig DVD492) heavy: not shown light: DIQMTQSPSSLSASVGDRVTITCRASQVIRRSLAWYQQKPGKAPKLLIYAASNLASGVPSRFSGSGSGTDFTLTISSLQPEDFATYYCQQSNTSPLTFGQGTKVEIKRTVAAPDIQMTQSSSYLSVSLGGRVTITCKASDHINNWLAWYQQKPGNAPRLLISGATSLETGVPSRFSGSGSGKDYTLSITSLQTEDVATYYCQQYWSIPLTFGAGTKLELKRTVAAPSVFIFPPSDEQLKSGTASVVCLLNNFYPREAKVQWKVDNALQSGNSQESVTEQDSKDSTYSLSSTLTLSKADYEKHKVYACEVTHQGLSSPVTKSFNRGEC |
| 1.26 | 7.32e-05 | 58100 | DVD504 (bispecific antibody, human IgG1, kappa, Outer AB071 (VEGF), inner AB072 (DLL4); HC linker long, LC linker short; also called DVD-Ig DVD504) heavy: not shown light: DIQMTQSPSSLSASVGDRVTITCRASQVIRRSLAWYQQKPGKAPKLLIYAASNLASGVPSRFSGSGSGTDFTLTISSLQPEDFATYYCQQSNTSPLTFGQGTKVEIKRTVAAPDIQMTQSSSYLSVSLGGRVTITCKASDHINNWLAWYQQKPGNAPRLLISGATSLETGVPSRFSGSGSGKDYTLSITSLQTEDVATYYCQQYWSIPLTFGAGTKLELKRTVAAPSVFIFPPSDEQLKSGTASVVCLLNNFYPREAKVQWKVDNALQSGNSQESVTEQDSKDSTYSLSSTLTLSKADYEKHKVYACEVTHQGLSSPVTKSFNRGEC |
| 0.205 | 0.000164 | 797000 | DVD465 (bispecific antibody, human IgG1, kappa, HC linker short, LC linker short; also called DVD-Ig DVD465) heavy: not shown light: DIQMTQSPSSLSASVGDRVTITCRASQDVSTAVAWYQQKPGKAPKLLIYSASFLYSGVPSRFSGSGSGTDFTLTISSLQPEDFATTYYCQQSYTGTVTFGQGTKVEIKRTVAAPDIQMTQSPSSLSASVGDRVTITCRASQDVSTAVAWYQQKPGKAPKLLIYSASFLYSGVPSRFSGSGSGTDFTLTISSLQPEDFATYYCQQSYTTPPTFGQGTKVEIKRTVAAPSVFIFPPSDEQLKSGTASVVCLLNNFYPREAKVQWKVDNALQSGNSQESVTEQDSKDSTYSLSSTLTLSKADYEKHKVYACEVTHQGLSSPVTKSFNRGEC |
| 0.306 | 0.000165 | 540000 | DVD477 (bispecific antibody, human IgG1, kappa, L234A L235A, HC linker long, LC linker short; also called DVD-Ig DVD477) heavy: not shown light: DIQMTQSPSSLSASVGDRVTITCRASQDVSTAVAWYQQKPGKAPKLLIYSASFLYSGVPSRFSGSGSGTDFTLTISSLQPEDFATTYYCQQSYTGTVTFGQGTKVEIKRTVAAPDIQMTQSPSSLSASVGDRVTITCRASQDVSTAVAWYQQKPGKAPKLLIYSASFLYSGVPSRFSGSGSGTDFTLTISSLQPEDFATYYCQQSYTTPPTFGQGTKVEIKRTVAAPSVFIFPPSDEQLKSGTASVVCLLNNFYPREAKVQWKVDNALQSGNSQESVTEQDSKDSTYSLSSTLTLSKADYEKHKVYACEVTHQGLSSPVTKSFNRGEC |
| 4.81 | 0.000584 | 121000 | DVD449 (bispecific antibody, human IgG1, kappa, HC linker long, LC linker long; also called DVD-Ig DVD449) heavy: not shown light: DIVMTQSPDSLAVSLGERATISCRASESVDNYGISFMKWFQQKPGQPPKLLIYAASNQGSGVPDRFSGSGSGTDFTLTISSLQAEDVAVYYCQQSKEVPWTFGGGTKVEIKRTVAAPSVFIFPPDIQMTQSPSSLSASVGDRVTITCRASQDVSTAVAWYQQKPGKAPKLLIYSASFLYSGVPSRFSGSGSGTDFTLTISSLQPEDFATYYCQQSYTTPPTFGQGTKVEIKRTVAAPSVFIFPPSDEQLKSGTASVVCLLNNFYPREAKVQWKVDNALQSGNSQESVTEQDSKDSTYSLSSTLTLSKADYEKHKVYACEVTHQGLSSPVTKSFNRGEC |
| 4.69 | 0.000538 | 115000 | DVD461 (bispecific antibody, human IgG1, kappa, HC linker short, LC linker long; also called DVD-Ig DVD461) heavy: not shown light: DIVMTQSPDSLAVSLGERATISCRASESVDNYGISFMKWFQQKPGQPPKLLIYAASNQGSGVPDRFSGSGSGTDFTLTISSLQAEDVAVYYCQQSKEVPWTFGGGTKVEIKRTVAAPSVFIFPPDIQMTQSPSSLSASVGDRVTITCRASQDVSTAVAWYQQKPGKAPKLLIYSASFLYSGVPSRFSGSGSGTDFTLTISSLQPEDFATYYCQQSYTTPPTFGQGTKVEIKRTVAAPSVFIFPPSDEQLKSGTASVVCLLNNFYPREAKVQWKVDNALQSGNSQESVTEQDSKDSTYSLSSTLTLSKADYEKHKVYACEVTHQGLSSPVTKSFNRGEC |
| 4.11 | 0.000596 | 145000 | DVD443 (bispecific antibody, human IgG1, kappa, HC linker short, LC linker short; also called DVD-Ig DVD443) heavy: not shown light: DIVMTQSPDSLAVSLGERATISCRASESVDNYGISFMKWFQQKPGQPPKLLIYAASNQGSGVPDRFSGSGSGTDFTLTISSLQAEDVAVYYCQQSKEVPWTFGGGTKVEIKRTVAAPDIQMTQSPSSLSASVGDRVTITCRASQDVSTAVAWYQQKPGKAPKLLIYSASFLYSGVPSRFSGSGSGTDFTLTISSLQPEDFATYYCQQSYTTPPTFGQGTKVEIKRTVAAPSVFIFPPSDEQLKSGTASVVCLLNNFYPREAKVQWKVDNALQSGNSQESVTEQDSKDSTYSLSSTLTLSKADYEKHKVYACEVTHQGLSSPVTKSFNRGEC |
| 4.7 | 0.000604 | 129000 | DVD455 (bispecific antibody, human IgG1, kappa, HC linker long, LC linker short; also called DVD-Ig DVD455) heavy: not shown light: DIVMTQSPDSLAVSLGERATISCRASESVDNYGISFMKWFQQKPGQPPKLLIYAASNQGSGVPDRFSGSGSGTDFTLTISSLQAEDVAVYYCQQSKEVPWTFGGGTKVEIKRTVAAPDIQMTQSPSSLSASVGDRVTITCRASQDVSTAVAWYQQKPGKAPKLLIYSASFLYSGVPSRFSGSGSGTDFTLTISSLQPEDFATYYCQQSYTTPPTFGQGTKVEIKRTVAAPSVFIFPPSDEQLKSGTASVVCLLNNFYPREAKVQWKVDNALQSGNSQESVTEQDSKDSTYSLSSTLTLSKADYEKHKVYACEVTHQGLSSPVTKSFNRGEC |
| 1.45 | 9.36e-05 | 64600 | DVD498 (bispecific antibody, human IgG1, kappa, Outer AB071 (VEGF), inner AB072 (DLL4); HC linker long, LC linker long; also called DVD-Ig DVD498) heavy: not shown light: DIQMTQSPSSLSASVGDRVTITCRASQVIRRSLAWYQQKPGKAPKLLIYAASNLASGVPSRFSGSGSGTDFTLTISSLQPEDFATYYCQQSNTSPLTFGQGTKVEIKRTVAAPSVFIFPPDIQMTQSSSYLSVSLGGRVTITCKASDHINNWLAWYQQKPGNAPRLLISGATSLETGVPSRFSGSGSGKDYTLSITSLQTEDVATYYCQQYWSIPLTFGAGTKLELKRTVAAPSVFIFPPSDEQLKSGTASVVCLLNNFYPREAKVQWKVDNALQSGNSQESVTEQDSKDSTYSLSSTLTLSKADYEKHKVYACEVTHQGLSSPVTKSFNRGEC |
| 1.55 | 8.84e-05 | 56900 | DVD510 (bispecific antibody, human IgG1, kappa, Outer AB071 (VEGF), inner AB072 (DLL4); HC linker short, LC linker long; also called DVD-Ig DVD510) heavy: not shown light: DIQMTQSPSSLSASVGDRVTITCRASQVIRRSLAWYQQKPGKAPKLLIYAASNLASGVPSRFSGSGSGTDFTLTISSLQPEDFATYYCQQSNTSPLTFGQGTKVEIKRTVAAPSVFIFPPDIQMTQSSSYLSVSLGGRVTITCKASDHINNWLAWYQQKPGNAPRLLISGATSLETGVPSRFSGSGSGKDYTLSITSLQTEDVATYYCQQYWSIPLTFGAGTKLELKRTVAAPSVFIFPPSDEQLKSGTASVVCLLNNFYPREAKVQWKVDNALQSGNSQESVTEQDSKDSTYSLSSTLTLSKADYEKHKVYACEVTHQGLSSPVTKSFNRGEC |
| 0.672 | 0.000252 | 376000 | DVD471 (bispecific antibody, human IgG1, kappa, L234A L235A, HC linker long, LC linker long; also called DVD-Ig DVD471) heavy: not shown light: DIQMTQSPSSLSASVGDRVTITCRASQDVSTAVAWYQQKPGKAPKLLIYSASFLYSGVPSRFSGSGSGTDFTLTISSLQPEDFATTYYCQQSYTGTVTFGQGTKVEIKRTVAAPSVFIFPPDIQMTQSPSSLSASVGDRVTITCRASQDVSTAVAWYQQKPGKAPKLLIYSASFLYSGVPSRFSGSGSGTDFTLTISSLQPEDFATYYCQQSYTTPPTFGQGTKVEIKRTVAAPSVFIFPPSDEQLKSGTASVVCLLNNFYPREAKVQWKVDNALQSGNSQESVTEQDSKDSTYSLSSTLTLSKADYEKHKVYACEVTHQGLSSPVTKSFNRGEC |
| 0.334 | 0.000139 | 416000 | DVD483 (bispecific antibody, human IgG1, kappa, HC linker short, LC linker long; also called DVD-Ig DVD483) heavy: not shown light: DIQMTQSPSSLSASVGDRVTITCRASQDVSTAVAWYQQKPGKAPKLLIYSASFLYSGVPSRFSGSGSGTDFTLTISSLQPEDFATTYYCQQSYTGTVTFGQGTKVEIKRTVAAPSVFIFPPDIQMTQSPSSLSASVGDRVTITCRASQDVSTAVAWYQQKPGKAPKLLIYSASFLYSGVPSRFSGSGSGTDFTLTISSLQPEDFATYYCQQSYTTPPTFGQGTKVEIKRTVAAPSVFIFPPSDEQLKSGTASVVCLLNNFYPREAKVQWKVDNALQSGNSQESVTEQDSKDSTYSLSSTLTLSKADYEKHKVYACEVTHQGLSSPVTKSFNRGEC |
| 2.5 | 0.000677 | 271000 | DVD513 (bispecific antibody, human IgG1, kappa, HC linker short, LC linker short; also called DVD-Ig DVD513) heavy: not shown light: QAVVTQESALTTSPGETVTLTCRSSTGAVTTSNYANWVQEKPDHLFTGLIGGTNNRAPGVPARFSGSLIGDKAALTITGAQTEDEAIYFCALWYSNHWVFGGGTKLTVLGQPKAAPDIQMTQSPSSLSASVGDRVTITCRASQDVSTAVAWYQQKPGKAPKLLIYSASFLYSGVPSRFSGSGSGTDFTLTISSLQPEDFATYYCQQSYTTPPTFGQGTKVEIKRTVAAPSVFIFPPSDEQLKSGTASVVCLLNNFYPREAKVQWKVDNALQSGNSQESVTEQDSKDSTYSLSSTLTLSKADYEKHKVYACEVTHQGLSSPVTKSFNRGEC |
| 2.57 | 0.00122 | 475000 | DVD525 (bispecific antibody, human IgG1, kappa, HC linker long, LC linker short; also called DVD-Ig DVD525) heavy: not shown light: QAVVTQESALTTSPGETVTLTCRSSTGAVTTSNYANWVQEKPDHLFTGLIGGTNNRAPGVPARFSGSLIGDKAALTITGAQTEDEAIYFCALWYSNHWVFGGGTKLTVLGQPKAAPDIQMTQSPSSLSASVGDRVTITCRASQDVSTAVAWYQQKPGKAPKLLIYSASFLYSGVPSRFSGSGSGTDFTLTISSLQPEDFATYYCQQSYTTPPTFGQGTKVEIKRTVAAPSVFIFPPSDEQLKSGTASVVCLLNNFYPREAKVQWKVDNALQSGNSQESVTEQDSKDSTYSLSSTLTLSKADYEKHKVYACEVTHQGLSSPVTKSFNRGEC |

Source: US20100260668A1 (published 2010)
